Source: paper PMC10786891, “Massively parallel profiling of RNA-targeting CRISPR-Cas13d”

T1: EsCas13d, nuclease-dead (Eubacterium siraeum, UniProt B0MS50, R295A;H300A;R849A;H854A)
T1 sequence: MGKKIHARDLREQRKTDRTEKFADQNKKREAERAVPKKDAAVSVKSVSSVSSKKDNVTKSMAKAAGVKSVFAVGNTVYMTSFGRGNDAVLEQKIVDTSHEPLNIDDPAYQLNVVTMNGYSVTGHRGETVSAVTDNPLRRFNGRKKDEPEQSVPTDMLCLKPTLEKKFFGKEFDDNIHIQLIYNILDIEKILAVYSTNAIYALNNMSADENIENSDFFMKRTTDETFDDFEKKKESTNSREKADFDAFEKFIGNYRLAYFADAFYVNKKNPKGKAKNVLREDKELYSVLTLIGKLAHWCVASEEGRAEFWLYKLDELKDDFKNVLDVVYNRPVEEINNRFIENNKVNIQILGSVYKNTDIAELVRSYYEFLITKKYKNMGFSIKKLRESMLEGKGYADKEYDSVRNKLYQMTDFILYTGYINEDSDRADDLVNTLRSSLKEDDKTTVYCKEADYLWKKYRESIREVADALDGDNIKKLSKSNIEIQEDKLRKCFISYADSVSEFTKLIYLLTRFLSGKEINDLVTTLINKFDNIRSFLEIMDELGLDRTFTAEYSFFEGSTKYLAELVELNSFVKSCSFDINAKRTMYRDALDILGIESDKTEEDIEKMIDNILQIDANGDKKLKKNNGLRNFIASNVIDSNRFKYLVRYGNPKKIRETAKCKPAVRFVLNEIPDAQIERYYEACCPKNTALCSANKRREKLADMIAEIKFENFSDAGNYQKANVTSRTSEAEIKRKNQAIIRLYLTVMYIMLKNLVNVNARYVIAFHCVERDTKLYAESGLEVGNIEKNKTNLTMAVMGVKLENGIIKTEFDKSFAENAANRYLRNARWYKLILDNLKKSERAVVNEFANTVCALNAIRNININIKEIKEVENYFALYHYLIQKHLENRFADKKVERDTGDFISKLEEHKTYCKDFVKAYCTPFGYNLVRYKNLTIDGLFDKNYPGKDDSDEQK


These binders were tested against T1, EsCas13d, nuclease-dead (assay: crRNA (strand 1, pre-loaded); Mg2+; 40 mM Tris-HCl pH 7.5, 150 mM NaCl, 6 mM MgCl2, 1 mM DTT, 0.1% Tween-20, 0.2 mg/ml BSA; 25 C; 10 min per concentration, then washed). Settings: tags: His6-TwinStrep-SUMO cleaved; N-terminal SNAP kept (SNAP-Surface 488); label: 3' end held by stalled T7 RNA polymerase.

Binder	Kd
target 1 del9,del11 (mixed) RNA 1: CACCCGUGCAAAAAUGCAGGGGUCUAAAACUGAGCGGAUAACCUCUCUAUGG RNA 2: GGGAAUGGAUCCACAUCUACGAAUUCGUACCAUAGAGAGGUUCCGCUCACCGAGAUCGGAAGAGCACACGU	13.2 ± 1 nM
target 1 insA 3' of 19,insC 3' of 9 (mixed) RNA 1: CACCCGUGCAAAAAUGCAGGGGUCUAAAACUGAGCGGAUAACCUCUCUAUGG RNA 2: GGGAAUGGAUCCACAUCUACGAAUUCGUACCAUAAGAGAGGUUACUCCGCUCACCGAGAUCGGAAGAGCACACGU	55 ± 4 nM
target 1 C4G,C7G (mixed) RNA 1: CACCCGUGCAAAAAUGCAGGGGUCUAAAACUGAGCGGAUAACCUCUCUAUGG RNA 2: GGGAAUGGAUCCACAUCUACGAAUUCGUACCAUAGAGAGGUUAUGCGGUCACCGAGAUCGGAAGAGCACACGU	9.7 ± 0.5 nM
target 1 insU 3' of 21,insA 3' of 3 (mixed) RNA 1: CACCCGUGCAAAAAUGCAGGGGUCUAAAACUGAGCGGAUAACCUCUCUAUGG RNA 2: GGGAAUGGAUCCACAUCUACGAAUUCGUACCUAUAGAGAGGUUAUCCGCUACACCGAGAUCGGAAGAGCACACGU	18.1 ± 0.9 nM
target 1 insC 3' of 17,insA 3' of 15 (mixed) RNA 1: CACCCGUGCAAAAAUGCAGGGGUCUAAAACUGAGCGGAUAACCUCUCUAUGG RNA 2: GGGAAUGGAUCCACAUCUACGAAUUCGUACCAUAGCAGAAGGUUAUCCGCUCACCGAGAUCGGAAGAGCACACGU	28 ± 4 nM
target 1 insC 3' of 15,insC 3' of 12 (mixed) RNA 1: CACCCGUGCAAAAAUGCAGGGGUCUAAAACUGAGCGGAUAACCUCUCUAUGG RNA 2: GGGAAUGGAUCCACAUCUACGAAUUCGUACCAUAGAGCAGGCUUAUCCGCUCACCGAGAUCGGAAGAGCACACGU	60 ± 13 nM
target 1 complement block 4-9 (mixed) RNA 1: CACCCGUGCAAAAAUGCAGGGGUCUAAAACUGAGCGGAUAACCUCUCUAUGG RNA 2: GGGAAUGGAUCCACAUCUACGAAUUCGUACCAUAGAGAGGUUUAGGCGUCACCGAGAUCGGAAGAGCACACGU	7.99 ± 0.28 nM
target 1 insC 3' of 5 (mixed) RNA 1: CACCCGUGCAAAAAUGCAGGGGUCUAAAACUGAGCGGAUAACCUCUCUAUGG RNA 2: GGGAAUGGAUCCACAUCUACGAAUUCGUACCAUAGAGAGGUUAUCCGCCUCACCGAGAUCGGAAGAGCACACGU	9.6 ± 0.7 nM
target 1 insC 3' of 16,insA 3' of 7 (mixed) RNA 1: CACCCGUGCAAAAAUGCAGGGGUCUAAAACUGAGCGGAUAACCUCUCUAUGG RNA 2: GGGAAUGGAUCCACAUCUACGAAUUCGUACCAUAGACGAGGUUAUCACGCUCACCGAGAUCGGAAGAGCACACGU	63 ± 15 nM
target 1 insA 3' of 10,insC 3' of 8 (mixed) RNA 1: CACCCGUGCAAAAAUGCAGGGGUCUAAAACUGAGCGGAUAACCUCUCUAUGG RNA 2: GGGAAUGGAUCCACAUCUACGAAUUCGUACCAUAGAGAGGUUAAUCCCGCUCACCGAGAUCGGAAGAGCACACGU	15.4 ± 0.8 nM
target 1 insU 3' of 21,insU 3' of 9 (mixed) RNA 1: CACCCGUGCAAAAAUGCAGGGGUCUAAAACUGAGCGGAUAACCUCUCUAUGG RNA 2: GGGAAUGGAUCCACAUCUACGAAUUCGUACCUAUAGAGAGGUUAUUCCGCUCACCGAGAUCGGAAGAGCACACGU	37 ± 4 nM
target 1 insC 3' of 18,insG 3' of 2 (mixed) RNA 1: CACCCGUGCAAAAAUGCAGGGGUCUAAAACUGAGCGGAUAACCUCUCUAUGG RNA 2: GGGAAUGGAUCCACAUCUACGAAUUCGUACCAUACGAGAGGUUAUCCGCUCGACCGAGAUCGGAAGAGCACACGU	38.9 ± 2.9 nM
target 1 G5A,C7G (mixed) RNA 1: CACCCGUGCAAAAAUGCAGGGGUCUAAAACUGAGCGGAUAACCUCUCUAUGG RNA 2: GGGAAUGGAUCCACAUCUACGAAUUCGUACCAUAGAGAGGUUAUGCACUCACCGAGAUCGGAAGAGCACACGU	11.8 ± 0.8 nM
target 1 insC 3' of 15,insC 3' of 15 (mixed) RNA 1: CACCCGUGCAAAAAUGCAGGGGUCUAAAACUGAGCGGAUAACCUCUCUAUGG RNA 2: GGGAAUGGAUCCACAUCUACGAAUUCGUACCAUAGAGCCAGGUUAUCCGCUCACCGAGAUCGGAAGAGCACACGU	26.6 ± 1.5 nM
target 1 insU 3' of 15,insA 3' of 15 (mixed) RNA 1: CACCCGUGCAAAAAUGCAGGGGUCUAAAACUGAGCGGAUAACCUCUCUAUGG RNA 2: GGGAAUGGAUCCACAUCUACGAAUUCGUACCAUAGAGUAAGGUUAUCCGCUCACCGAGAUCGGAAGAGCACACGU	19 ± 1.7 nM
target 1 insC 3' of 22,insG 3' of 6 (mixed) RNA 1: CACCCGUGCAAAAAUGCAGGGGUCUAAAACUGAGCGGAUAACCUCUCUAUGG RNA 2: GGGAAUGGAUCCACAUCUACGAAUUCGUACCCAUAGAGAGGUUAUCCGGCUCACCGAGAUCGGAAGAGCACACGU	25.2 ± 3.3 nM
target 1 C2U,C4G (mixed) RNA 1: CACCCGUGCAAAAAUGCAGGGGUCUAAAACUGAGCGGAUAACCUCUCUAUGG RNA 2: GGGAAUGGAUCCACAUCUACGAAUUCGUACCAUAGAGAGGUUAUCCGGUUACCGAGAUCGGAAGAGCACACGU	5.1 ± 0.5 nM
target 1 insC 3' of 13,insA 3' of 12 (mixed) RNA 1: CACCCGUGCAAAAAUGCAGGGGUCUAAAACUGAGCGGAUAACCUCUCUAUGG RNA 2: GGGAAUGGAUCCACAUCUACGAAUUCGUACCAUAGAGAGCGAUUAUCCGCUCACCGAGAUCGGAAGAGCACACGU	15.7 ± 1 nM
target 1 insC 3' of 13,insA 3' of 7 (mixed) RNA 1: CACCCGUGCAAAAAUGCAGGGGUCUAAAACUGAGCGGAUAACCUCUCUAUGG RNA 2: GGGAAUGGAUCCACAUCUACGAAUUCGUACCAUAGAGAGCGUUAUCACGCUCACCGAGAUCGGAAGAGCACACGU	14.2 ± 0.9 nM
target 1 U11G,U19C (mixed) RNA 1: CACCCGUGCAAAAAUGCAGGGGUCUAAAACUGAGCGGAUAACCUCUCUAUGG RNA 2: GGGAAUGGAUCCACAUCUACGAAUUCGUACCACAGAGAGGGUAUCCGCUCACCGAGAUCGGAAGAGCACACGU	86 ± 18 nM
target 1 C6G,A16C (mixed) RNA 1: CACCCGUGCAAAAAUGCAGGGGUCUAAAACUGAGCGGAUAACCUCUCUAUGG RNA 2: GGGAAUGGAUCCACAUCUACGAAUUCGUACCAUAGCGAGGUUAUCGGCUCACCGAGAUCGGAAGAGCACACGU	42.2 ± 1.8 nM
target 1 insA 3' of 22,insC 3' of 19 (mixed) RNA 1: CACCCGUGCAAAAAUGCAGGGGUCUAAAACUGAGCGGAUAACCUCUCUAUGG RNA 2: GGGAAUGGAUCCACAUCUACGAAUUCGUACACAUCAGAGAGGUUAUCCGCUCACCGAGAUCGGAAGAGCACACGU	51 ± 7 nM
target 1 U10C,G17C (mixed) RNA 1: CACCCGUGCAAAAAUGCAGGGGUCUAAAACUGAGCGGAUAACCUCUCUAUGG RNA 2: GGGAAUGGAUCCACAUCUACGAAUUCGUACCAUACAGAGGUCAUCCGCUCACCGAGAUCGGAAGAGCACACGU	63 ± 19 nM
target 1 insG 3' of 4,insU 3' of 2 (mixed) RNA 1: CACCCGUGCAAAAAUGCAGGGGUCUAAAACUGAGCGGAUAACCUCUCUAUGG RNA 2: GGGAAUGGAUCCACAUCUACGAAUUCGUACCAUAGAGAGGUUAUCCGCGUCUACCGAGAUCGGAAGAGCACACGU	8.5 ± 0.4 nM
target 1 insG 3' of 18,insU 3' of 15 (mixed) RNA 1: CACCCGUGCAAAAAUGCAGGGGUCUAAAACUGAGCGGAUAACCUCUCUAUGG RNA 2: GGGAAUGGAUCCACAUCUACGAAUUCGUACCAUAGGAGUAGGUUAUCCGCUCACCGAGAUCGGAAGAGCACACGU	70 ± 17 nM
target 1 insU 3' of 22,insA 3' of 13 (mixed) RNA 1: CACCCGUGCAAAAAUGCAGGGGUCUAAAACUGAGCGGAUAACCUCUCUAUGG RNA 2: GGGAAUGGAUCCACAUCUACGAAUUCGUACUCAUAGAGAGAGUUAUCCGCUCACCGAGAUCGGAAGAGCACACGU	17.1 ± 1.9 nM
target 1 A1G,G5A (mixed) RNA 1: CACCCGUGCAAAAAUGCAGGGGUCUAAAACUGAGCGGAUAACCUCUCUAUGG RNA 2: GGGAAUGGAUCCACAUCUACGAAUUCGUACCAUAGAGAGGUUAUCCACUCGCCGAGAUCGGAAGAGCACACGU	35 ± 4 nM
target 1 insC 3' of 20,insA 3' of 11 (mixed) RNA 1: CACCCGUGCAAAAAUGCAGGGGUCUAAAACUGAGCGGAUAACCUCUCUAUGG RNA 2: GGGAAUGGAUCCACAUCUACGAAUUCGUACCACUAGAGAGGUAUAUCCGCUCACCGAGAUCGGAAGAGCACACGU	11.9 ± 0.7 nM
